Source: publication PMC4949388 (Brain, 2015)

What was measured:
[1] = biological target: CSF BuChE (human (endogenous in CSF)) (UniProt P06276); assay: co-sedimentation
co-sedimentation = biological target: the molecule itself; assay: co-sedimentation

Molecule “CSF BuChE (from UniProt P06276 29-602) (enzyme)” has a stoichiometry N [1] of 4.

B1: highly purified BuChE from human serum (enzyme)
chain: EDDIIIATKNGKVRGMNLTVFGGTVTAFLGIPYAQPPLGRLRFKKPQSLTKWSDIWNATKYANSCCQNIDQSFPGFHGSEMWNPNTDLSEDCLYLNVWIPAPKPKNATVLIWIYGGGFQTGTSSLHVYDGKFLARVERVIVVSMNYRVGALGFLALPGNPEAPGNMGLFDQQLALQWVQKNIAAFGGNPKSVTLFGESAGAASVSLHLLSPGSHSLFTRAILQSGSFNAPWAVTSLYEARNRTLNLAKLTGCSRENETEIIKCLRNKDPQEILLNEAFVVPYGTPLSVNFGPTVDGDFLTDMPDILLELGQFKKTQILVGVNKDEGTAFLVYGAPGFSKDNNSIITRKEFQEGLKIFFPGVSEFGKESILFHYTDWVDDQRPENYREALGDVVGDYNFICPALEFTKKFSEWGNNAFFYYFEHRSSKLPWPEWMGVMHGYEIEFVFGLPLERRDNYTKAEEILSRSIVKRWANFAKYGNPNETQNNSTSWPVFKSTEQKYLTLNTESTRIMTKLRAQQCRFWTSFFPKVLEMTGNIDEAEWEWKAGFHRWNNYMMDWKNQFNDYTSKKESCVGL
B1 was tested, and the “stoichiometry N” value (co-sedimentation) was 4.
